Drawing on paper PMC3879356, this text covers Kd for one substance.

In the test the target is cytosolic domain of CAML (CAMLcyt), GST-tagged. As to the kind of experiment: SPR; WRBcc or CAMLcyt immobilised on a HC1000m sensorchip (Reichert SR7000DC); analyte TRC40wt or TRC40wt/RAMP4 in PBS, 15°C, 40 µl/min, injected 270 s, dissociation 12 min; average of three independent measurements.

TRC40/RAMP4 complex (MBP-TRC40/HZZ-RAMP4op protein complex), sequence (O43681 whole entry): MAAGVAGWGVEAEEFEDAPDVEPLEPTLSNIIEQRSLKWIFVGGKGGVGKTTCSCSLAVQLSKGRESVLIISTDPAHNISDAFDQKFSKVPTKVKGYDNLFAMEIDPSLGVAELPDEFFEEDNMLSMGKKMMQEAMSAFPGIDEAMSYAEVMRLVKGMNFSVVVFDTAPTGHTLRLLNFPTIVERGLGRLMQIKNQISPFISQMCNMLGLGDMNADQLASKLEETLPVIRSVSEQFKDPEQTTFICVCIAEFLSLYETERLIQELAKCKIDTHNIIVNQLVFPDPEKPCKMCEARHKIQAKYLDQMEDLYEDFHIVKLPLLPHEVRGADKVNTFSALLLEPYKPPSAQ
TRC40/RAMP4 complex (MBP-TRC40/HZZ-RAMP4op protein complex), sequence (Q9Y6X1 whole entry): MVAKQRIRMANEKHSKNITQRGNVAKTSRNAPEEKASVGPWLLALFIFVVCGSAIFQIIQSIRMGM

Regarding “TRC40/RAMP4 complex (MBP-TRC40/HZZ-RAMP4op protein complex) (from UniProt O43681 1-348; Q9Y6X1 1-66)”, the Kd was 34 nM.
